# Data published in the nanobody polyreactivity screen of Harvey et al. (2022).
# Test: yeast display, Sf9 membrane polyspecificity reagent, FACS + sequencing; frameworks hold sequencing errors
# In short: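 Galactose-induced (36–48 hours) yeast carrying a synthetic nanobody display library were exposed to 10% biotinylated, detergent-solubilized Sf9 membrane reagent at 4 °C for 1 hour. FACS followed streptavidin microbead enrichment, using low and high (top ~1%) gates for expression (anti-HA) and reagent binding (streptavidin). Colony PCR, MiSeq 2 × 250 sequencing and CDR-length filtering followed. Labels for polyreactivity reflect the gate of origin.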
row,Sequence,polyreactivity (PSR sort gate)
1,QVQLVESGGGLVQAGGSLRLSCAASGSTFSLYVMGWYRQAPGKEREFVATINWRTVSTYYADSVKGRFTISRDNAKKTVYLQMNSLIPEDTAVYYCNAVSYPPDGTYDYWGQGTQVTVSS,low polyreactivity
2,QVQLVESGGGLVQAGGSLRLSCAASGSTFSNYAMGWYRQAPGKERELVASISNGGSTNYADSVKGRFTISRDNAKNTVYLQMNSLKPEDTAVYYCNAESKAKYDYWGQGTQVTVSS,low polyreactivity
3,QVQLVESGGGLVQAGGSLRLSCAASGSTFSPYAMGWYRQAPGKERELVAAINYSSGSTYYADSVKGRFTISRDNAKNTVYFQMNSLKTEDTAVYYCAKGWYAGYPYDYWGQGTQVTVSS,low polyreactivity
4,QVQLVESGGGLVQAGGSLRLSCAASGSTFSPYAMGWYRQAPGKERELVANITISGGSTYYADSVKGRFTISRDNAKNTVYIQMNSLKPEDTAVYYCNADSLIRWLFTVVIFDYWGQGTLVTVSS,low polyreactivity
5,QVQLVESGGGLVQAGGSLRLSCAASGSTFSPYAMGWYRQAPGKERELVANITISGGSTYYADSVKGRFTISRDNAKNTVYLQMNSLKPEDTAVYFCNADSLIRWLFTVVIFDYWGQGTQVTVSS,low polyreactivity
6,QVQLVESGGGLVQAGGSLRLSCAASGSTFSQNALGWYRQAPGKDRELVAAITSGGITYYADSVKGRFTMSRDNAKNTVYLQMNSLKPEDTAVYYCAADFWPSGRGVAFDYWGQGTQVTVSS,low polyreactivity
7,QVQLVESGGGLVQAGGSLRLSCAASGSTFSRNAMGWYRQAPGKERELVAAISWRGGRTYYADSVKGRFTISRDNAKNTVYLQMNSLKPEDTAVYYCAAEHKYRYDYWGQGTQVTVSS,low polyreactivity
8,QVQLVESGGGLVQAGGSLRLSCAASGSTFSRNAMGWYRQAPGKERELVAAITLRGTNTYYADSVKGRFTISRDNAKNTVYLQMNSLKPEDTAVYYCAALRRGSGRYDMDYWGQGTQVTVSS,high polyreactivity
9,QVQLVESGGGLVQAGGSLRLSCAASGSTFSRNASGWYRQAPGKERELVAAISRRGDTTYYADSVKGRFTISRDNAKNTVYLQMNSLKPEDTAVYYCNRLTIGSSSYDYWGQGTQVTVSS,high polyreactivity
10,QVQLVESGGGLVQAGGSLRLSCAASGSTFSRYAMGWYRQAPGKEMELVAAITGSGGNTYYADSVKGRFTISRDNAKNTVYLQMNSLKPEDTAVYYCAAEDYVGWYNFEYWGQGTQVTVSS,high polyreactivity
11,QVQLVESGGGLVQAGGSLRLSCAASGSTFSRYAMGWYRQAPGKEREFGAAISRRAGGTYYADSVKGRFTISRDNAKNTVYLQMNSLKPEDTAVYYCAKVLPRDYIGRATYDYWGQGTQVTVSS,high polyreactivity
12,QVQLVESGGGLVQAGGSLRLSCAASGSTFSRYAMGWYRQAPGKERELVAAISSRGGSTYYADSVKGRFTISRDNAKNTVYLQMNSLKPEDTAVYYCNALTSYQNHVYPYDYWGQGTEVTVSS,high polyreactivity
13,QVQLVESGGGLVQAGGSLRLSCAASGSTFSRYAMGWYRQAPGKERELVAAITRSGGGTHYADSVKGRFTISRDNAKNTVYLQMNSLKPEDTAVYYCATDYTKYPTGYYYWGQGTQVTVSS,low polyreactivity
14,QVQLVESGGGLVQAGGSLRLSCAASGSTFSRYSMGWYRQAPGKERELVAAITGRGGRTYYADSVKGRFTISRDNAKKTVYLQLNSLKPEDTAVYYCAAYYGPYRSLYYYWGQGNQVTVSS,high polyreactivity
15,QVQLVESGGGLVQAGGSLRLSCAASGSTFSRYTMGWYRQAPGKERELVAVITRRGGSTYYADSVKGRFTISRDNAKNTVYLQMNSLKPADTAVYYCAADYKYPIDYGYWGQGTQVTVSS,high polyreactivity
16,QVQLVESGGGLVQAGGSLRLSCAASGSTFSSNAMGWYRQAPGKEREFVAAISRRTGSTYYADSVKGRFTISRDNANNTVYLQMNSLKPEDTAVYYSAATGEKLARSSFGYWGQGTQVTVSS,low polyreactivity
17,QVQLVESGGGLVQAGGSLRLSCAASGSTFSSNAMGWYRQAPGKERELVAAISKRGGRTYYADSVKGRFTISRDNAKNTVYLQMNSLKPEDTAVYYCAKDYSSAVDYWGQGTQVTVSS,high polyreactivity
18,QVQLVESGGGLVQAGGSLRLSCAASGSTFSSYAMGWYRQAPGKERELVAAISSSGGTSTYADSVKGRFTISRDNAKNTVYLQMNSLKPEDTAVYYCAARQYRRLRDYRHDYWGQGTQVTVSS,high polyreactivity
19,QVQLVESGGGLVQAGGSLRLSCAASGSTFSSYAMGWYRQAPGKERELVAAISYSGGSTYYADSVKGRFTISRDNAKNTVYLQMNSLKPEDTAVYYCAAVGTWQHRSYGYWGQGTQVTVSS,high polyreactivity
20,QVQLVESGGGLVQAGGSLRLSCAASGSTFSSYAMGWYRQAPGKERELVAAITSGTRTYYADSVKGRFTISRDNAKNTVYFQMNSLKPEDTAVYYCAAPTSSSGRYHRYYYWVQGTQVTVSS,high polyreactivity
21,QVQLVESGGGLVQAGGSLRLSCAASGSTFSSYAMGWYRQAPGKERELVAAITSRGSRTFYADSVKGRFTISRDNAKNTVYLQMNSLKPEDTAVYYCAAYFRIGTFGQYDYWGQGTQVTVSS,high polyreactivity
22,QVQLVESGGGLVQAGGSLRLSCAASGSTFSSYGMGWYRQAPGKERELVAAISKRGGSTYYADSVKGRFTISRDNAKNTVYLQMNSLKPEDTAVYYCAARYRLYYYFRFDWGQGTHVTVSS,high polyreactivity

row,Sequence,polyreactivity (PSR sort gate)
1,QVQLVESGGGLVQAGGSLRLSCAASGSTFSSYVMGWYRQAPGKERELVAGITRGGRTYYADSVKGRFTISRDNAKNTGYLQMNSLKPEDTAVYYCAKDQGGVHELDYWGQGTQVTVSS,low polyreactivity
2,QVQLVESGGGLVQAGGSLRLSCAASGSTFSTYAMGWYRQAPGKERELVARITRSDTGTYYADSVKGRFTISRDNAKNTVYLQMNSLKPEDTAVYYCAADGWYDDSGWYYGYDYWGQGTQVTVSS,low polyreactivity
3,QVQLVESGGGLVQAGGSLRLSCAASGSTFSVYAMGWYRQAPGKERELVARITGGSTYADSVKGRFTISRDNAKNTVYLQMNSLKPEDTAVYFCNAYRYWSPGYDYWGQGTQVTVSS,low polyreactivity
4,QVQLVESGGGLVQAGGSLRLSCAASGSTFSWNTMGWYRQAPGKERELVADIRTSGGGTYYADSVKGRFTISRDNAKNSVYLQMNSLKPEDTAVYYCNGDPKWEMVSWGQGTQVTVSS,low polyreactivity
5,QVQLVESGGGLVQAGGSLRLSCAASGSTFSWYAMGWYRQAPGKERELVASISWRGGSTYYADSVKGRFTISRDNAKNTVSLQMNSLKPEDTAVYYCAADYDWKLFHEPPAVYDYDYWGQGTQVTVSS,low polyreactivity
6,QVQLVESGGGLVQAGGSLRLSCAASGSTFSYNAMGWYRQAPGKERELVAAIDANGGSTYYADSVKGRFTISRDNAKNTVYVQMNSLKPEDTAVYYCAAAGYWYYYVPNDSWGQGTQVTVSS,low polyreactivity
7,QVQLVESGGGLVQAGGSLRLSCAASGSTFSYNAMGWYRQAPGKERELVAAIRWGGGSTYYADSVKGRFTISCDNAKNTVYLQMNSLKPEDTAVYYCARYGYRRVGSRWAEFDYWGQGTQVTVSS,high polyreactivity
8,QVQLVESGGGLVQAGGSLRLSCAASGSTFSYNAMGWYRQAPGKERELVAAISRGGITNYADSVKGRFTISRDNAKNTVYLQMNSLKPEDTAVYYCAVRHVWPWQGYDYWGQGTQVTVSS,low polyreactivity
9,QVQLVESGGGLVQAGGSLRLSCAASGSTFSYNAMGWYRQAPGKERELVAAITSSGSSTYYADSVKGRFTISRYNAKNTVYLQMNSLKPEDTAVYYCNAEVLFVAGQVQRNSGDYWGQGTQVTVSS,low polyreactivity
10,QVQLVESGGGLVQAGGSLRLSCAASGSTFSYNAMGWYRQAPGKERELVASISTSGGSTYYADSVKGRFTISRDNAKNTVYLQMNSLKPEDTAVYYCNAPTSDMYSDFDYWGQGTQVTVSS,low polyreactivity
11,QVQLVESGGGLVQAGGSLRLSCAASGSTFSYNTMGWYRQAPGKERELVASNTRSGGSTNYADSVKGRFTISRDNAKNTVYLQMNSLKPEDTAVYYCAKDYISVWNVRASDYYWYDYWGQGTQVTVSS,low polyreactivity
12,QVQLVESGGGLVQAGGSLRLSCAASGSTFSYYAMGWYRQAPGKERELVAAITRSGGRTYYADSVKGRFTISRDNAKNTVYLQMNSLKPEDTAVYYCAALSVGTRRDYWGQGTQVTVSS,low polyreactivity
13,QVQLVESGGGLVQAGGSLRLSCAASGSTFSYYAMGWYRQAPGKERELVASITWNGARTYYADSVKGRFTISRDNAKNTVYLQMNSLKPEDTAVYYCADRHKYAFWTAFGNYWGQGTQVTVSS,high polyreactivity
14,QVQLVESGGGLVQAGGSLRLSCAASGSTFSYYAMGWYRQAPGKERELVAVISRGGSTNYADSVKGRFTISRDNAKNTVYLQMNSLKPEDTAVYYCAAYVLPWRGRGQTEYGYWGQGTQVTVSS,low polyreactivity
15,QVQLVESGGGLVQAGGSLRLSCAASGSTFSYYAMGWYRQAPVKERELVAAITSGGGRTYYADSVKGRFTISRDNAKNTVYLQMNSLKPEDTAVYYCNALSTLYNGYDYWGQGTQVTVSS,high polyreactivity
16,QVQLVESGGGLVQAGGSLRLSCAASGSTFSYYTMGWYRQAPGKERELVAAISKSGGITYYADSVKGRFTISRDNAKNTVYLQMNSLKPEDTAVYYCAADGGYYDDDYWGQGTQVTVSS,high polyreactivity
17,QVQLVESGGGLVQAGGSLRLSCAASGSTFSYYTMPWYRQAPGKERELVAAISRSGANTHYADSVKGRFTISRDNAKITVYLQMNSMKPEDTAVYYCAKVHSGRHYDYWGQGTQVTVSS,high polyreactivity
18,QVQLVESGGGLVQAGGSLRLSCAASGSTFTANAMGWYRQAPGKERELVAAISDTTGNTYYADSVKGRFTISRDNAKNTVYLQMNSLKPEDTAVYYCAARQFKSDIVVSLVDSWGQGTHVTVSS,low polyreactivity
19,QVQLVESGGGLVQAGGSLRLSCAASGSTFTGNAMGWYRPAPGKERELVADITWSDGSTDYADSVKGRFTISRDNAKNTVYLQMNSLKPDDTAVYYCNARITYYVGTAWYDYWGQGTQVTVSS,low polyreactivity
20,QVQLVESGGGLVQAGGSLRLSCAASGSTFTGYAMGWYRPAPGKEREFVAAISRSGGSTYYADSVKGRFTISRDNAKNTVYLQMNSLKPEDTAVYYCNARGFTRYTVGRNYWGQGTQVTVSS,high polyreactivity
21,QVQLVESGGGLVQAGGSLRLSCAASGSTFTGYAMGWYRQAPGKEMELVAAISISGGRTVYADSVKGRFTISRDNAKNTVYLQMNSLKREDTAVYYCNARYTRYTLRYYYWGQGTQVTVSS,high polyreactivity
